This note sets out measurements from the RNAGym collection of RNA variant scans (doi:10.7554/elife.90254).

Sequences and labels used below:
B1: OR4K15 (parent)
chain: GUUAACGGUCAUAGGCCAUGGAAACUAGGAGCACCAUUUCGCUGCCAGUGAAGAAAUGAACAAAGAAAAUCUGGGCCAGGCAGGCAUCAAAAGAAAUAGUCUUGCGCUCAACCAGAAAGUCUGUAAUCAUUUUAAGGGUA

Variants of B1 are the subject of the data set. Description: self-cleavage, relative activity (ratio to wild type); higher = more cleavage; in vitro, sequencing; the parent is a self-cleaving ribozyme.
With A54G U122A, the self-cleavage is 1.72.

In the case of G44U A66U, the self-cleavage amounted to 2.02.

U70C C128U: the self-cleavage worked out at 0.31.

A98U A114G: the self-cleavage is 0.5.

With U9C, the self-cleavage is 1.61.

In the case of A33U U139A, the self-cleavage was 0.95.

On to A55G C128A, for which the self-cleavage turned out to be 1.06.

With U26A U130C, the self-cleavage turned out to be 0.54.

Regarding G21A A114U, the self-cleavage was found to be 0.05.

As for U100C A117U, the self-cleavage worked out at 1.45.

On to A96G A118G, for which the self-cleavage is 1.4.

On to C107U, for which the self-cleavage is 0.02.

With G21A A69U, the self-cleavage was 1.48.

With A5G A89G, the self-cleavage was 1.23.

Consider U3A U127C, for which the self-cleavage turned out to be 0.63.

Take U100C A135U: the self-cleavage came out at 2.37.

In the case of G41A U130C, the self-cleavage amounted to 0.99.

As to U49A U108C, the self-cleavage amounted to 0.01.

Turning to A86G A135U, the self-cleavage stood at 2.39.

As to A90U U122C, the self-cleavage came out at 2.2.

As to A5G C121U, the self-cleavage came out at 1.14.

On to G58U A111G, for which the self-cleavage turned out to be 0.02.

Consider A68G G104A, for which the self-cleavage is 0.04.

Consider A18G, for which the self-cleavage worked out at 1.16.

For A89U U102A, the self-cleavage came out at 0.98.

Regarding A24U U102C, the self-cleavage was 1.26.

On to U19A A69G, for which the self-cleavage was 1.14.

With U43C U122A, the self-cleavage worked out at 1.34.

As for U72C U122A, the self-cleavage is 0.09.

For the variant C71A U124C, the self-cleavage is 0.22.

For U49C A56G, the self-cleavage came to 1.57.

For the variant U49A U139C, the self-cleavage worked out at 1.97.

In the case of U38C C88A, the self-cleavage was 1.74.

For the variant G41A U122C, the self-cleavage is 1.67.

For the variant C40U U130C, the self-cleavage was 0.46.

In the case of C16A, the self-cleavage worked out at 1.69.

For U26C G84A, the self-cleavage was determined as 1.84.

A5G A116U: the self-cleavage was determined as 0.25.

In the case of A11C, the self-cleavage is 1.41.

Regarding U19C A22G, the self-cleavage came to 1.12.

Consider A96G U108A, for which the self-cleavage was determined as 0.02.

As for G14U G48A, the self-cleavage is 1.52.

Turning to U38C C61A, the self-cleavage stood at 0.99.

For A60G C85U, the self-cleavage is 1.31.

For the variant A18U A94U, the self-cleavage came to 1.11.

For the variant U26C A62U, the self-cleavage was 1.84.

Take U100C A126U: the self-cleavage turned out to be 0.32.

U87A A118G: the self-cleavage came out at 1.26.

For the variant U9A C77A, the self-cleavage was found to be 0.08.

For A64G A69G, the self-cleavage worked out at 1.36.

Consider A54G U127C, for which the self-cleavage came to 1.07.

As to U70C A111G, the self-cleavage was found to be 0.02.

As to G79A U127C, the self-cleavage worked out at 0.06.

For the variant U108A A140C, the self-cleavage was 0.04.

As for A59G A60U, the self-cleavage was 2.03.

In the case of G53A C128A, the self-cleavage came out at 0.93.

Regarding A60U A110G, the self-cleavage turned out to be 0.24.

With A68G U131C, the self-cleavage stood at 0.99.

As to A129U U132C, the self-cleavage is 1.12.

For the variant U57C U70C, the self-cleavage came out at 0.47.

Regarding U9G A95G, the self-cleavage is 0.99.

With A118U U127C, the self-cleavage stood at 0.02.

As to A55G U102A, the self-cleavage was determined as 0.81.

For the variant U37G U130C, the self-cleavage was 0.05.

Regarding A13G A118G, the self-cleavage was 0.96.

Turning to G21A G106A, the self-cleavage came to 0.02.

With U9G A135U, the self-cleavage was 0.85.

In the case of A18G A126G, the self-cleavage stood at 0.8.

As for A22G A110C, the self-cleavage was 0.3.

On to U102C C105U, for which the self-cleavage was 1.01.

Regarding A47G G58C, the self-cleavage worked out at 0.97.

For the variant A52C A64G, the self-cleavage stood at 1.38.

Consider A56C U108C, for which the self-cleavage came to 0.01.

For the variant U38C G75A, the self-cleavage worked out at 0.13.

A68G U130A: the self-cleavage worked out at 0.91.

In the case of C34U A67U, the self-cleavage amounted to 1.92.

For the variant G7U G104A, the self-cleavage worked out at 0.05.

For U2C U70A, the self-cleavage worked out at 0.71.

U37C U57G: the self-cleavage stood at 0.5.

Regarding A13U U43C, the self-cleavage amounted to 1.24.

For A67G A78U, the self-cleavage was determined as 0.33.

On to U72G A114C, for which the self-cleavage was 2.51.

On to A27C U87A, for which the self-cleavage was 1.13.

Consider U2C A134U, for which the self-cleavage was determined as 0.69.

As to U72G U120C, the self-cleavage was 0.13.

Turning to C76A A111U, the self-cleavage worked out at 0.03.

For the variant A5C, the self-cleavage came out at 1.21.

A22G U37A: the self-cleavage is 2.01.

For the variant U12A U102A, the self-cleavage is 1.08.

Take G29A U131C: the self-cleavage was 0.66.

Regarding A82C A114U, the self-cleavage is 0.02.

For the variant A52G A117C, the self-cleavage was 0.47.

In the case of A54G C112G, the self-cleavage is 0.01.

U87C U100A: the self-cleavage came out at 0.18.

On to C61U A62G, for which the self-cleavage is 1.65.

Turning to A36C A91G, the self-cleavage is 1.81.

As to A64G A134U, the self-cleavage worked out at 1.07.

On to A117U U131C, for which the self-cleavage came to 1.01.

As for U122A U132C, the self-cleavage came to 2.13.

For G41C, the self-cleavage was found to be 1.78.

For A24G U131G, the self-cleavage is 1.61.

In the case of C71A U132C, the self-cleavage was 0.58.

Turning to A36G A118G, the self-cleavage is 1.47.

Turning to A11G U70A, the self-cleavage was 0.92.

For A67G A111U, the self-cleavage is 0.12.

For G75A A125G, the self-cleavage came to 0.03.

Take A91U U103C: the self-cleavage amounted to 0.51.

In the case of A24U U43A, the self-cleavage turned out to be 1.68.

In the case of A24G A116U, the self-cleavage turned out to be 0.46.

As for A23C A30G, the self-cleavage amounted to 0.62.

In the case of A64U U108A, the self-cleavage stood at 0.02.

As to A18G A118C, the self-cleavage turned out to be 0.27.

Regarding A54G A126U, the self-cleavage was 0.42.

On to U49C A51U, for which the self-cleavage stood at 0.99.

Regarding G15A A27G, the self-cleavage came to 1.23.

Consider A5U A55U, for which the self-cleavage is 1.15.

With A59G A82G, the self-cleavage came to 0.45.

Take A64G U133C: the self-cleavage amounted to 1.5.

With A62G C109U, the self-cleavage stood at 0.53.

A89C A134G: the self-cleavage is 1.16.

Take A69G A82U: the self-cleavage was 0.18.

For the variant A18G G115U, the self-cleavage is 0.14.

Turning to A78G A91U, the self-cleavage is 0.22.

Turning to U38C U39A, the self-cleavage was 0.89.

In the case of G75C, the self-cleavage amounted to 0.17.

With A116G A125G, the self-cleavage came out at 0.23.

Consider A96U U120C, for which the self-cleavage is 1.17.

A90U U103A: the self-cleavage came to 0.34.

As for U9G G119A, the self-cleavage was determined as 1.48.

As for G1U A95G, the self-cleavage was 0.56.

For the variant A13G U132C, the self-cleavage worked out at 0.41.

In the case of A110G A140C, the self-cleavage amounted to 0.14.

For the variant U12A A63U, the self-cleavage was found to be 1.88.

For A110U U122C, the self-cleavage was 0.92.

For the variant U9C U72A, the self-cleavage came out at 0.43.

As to U57A U70C, the self-cleavage came to 0.48.

As for G21A A94G, the self-cleavage came to 1.81.

Turning to A52G A125G, the self-cleavage was found to be 0.37.

Take A60G C105A: the self-cleavage was found to be 0.04.

With A51U A59G, the self-cleavage was found to be 0.95.

Take A110G A114C: the self-cleavage was determined as 0.01.

As for A78C U108A, the self-cleavage turned out to be 0.01.

Consider A24C U37C, for which the self-cleavage stood at 1.29.

In the case of A98U A135G, the self-cleavage turned out to be 2.4.

For A56G G79A, the self-cleavage amounted to 0.1.

For A62U U102C, the self-cleavage is 1.91.

For the variant G44U A52U, the self-cleavage worked out at 0.

With A69G A129G, the self-cleavage was 0.87.

Take U87G: the self-cleavage worked out at 0.74.

With A60G A95G, the self-cleavage amounted to 1.63.

Consider U102A U122C, for which the self-cleavage worked out at 0.55.

A64G C121G: the self-cleavage stood at 2.89.

For the variant A47U G106U, the self-cleavage amounted to 0.01.

With G14A A117G, the self-cleavage stood at 1.22.

A56G A129G: the self-cleavage was found to be 1.45.

On to A52G A95G, for which the self-cleavage amounted to 2.12.

For A96G A129G, the self-cleavage was determined as 1.11.

In the case of U9C U130C, the self-cleavage worked out at 1.05.

Consider U72A A114G, for which the self-cleavage was determined as 0.11.

As for U3G G41U, the self-cleavage amounted to 1.

For the variant A54G A62U, the self-cleavage was 1.14.

Turning to A60U A94G, the self-cleavage came to 1.5.

In the case of U39A A116G, the self-cleavage amounted to 1.2.

A11U U72C: the self-cleavage is 0.35.

Take A33G U39A: the self-cleavage was 1.23.

U97A U103C: the self-cleavage was found to be 1.63.

Turning to A5C A33G, the self-cleavage worked out at 0.87.
